Reference: patent US20210380702A1 (Regeneron, published 2021)
Where a chain is given by its changes, count along the chain named. Each block holds one binder with its values, some of them ahead of it.

How the values were obtained:
[1] = biological target: T1, recombinant human PD-L1 expressed with a C-terminal myc-myc-hexahistidine tag (hPD-L1-MMH) (human); assay: SPR, captured mAb, 25 C
T1 construct: Monomeric PD-L1 reagent; also called hPD-L1-MMH Monomer
Method: (§1) Binding association and dissociation rate constants (kₐ and kd, respectively), equilibrium dissociation constants and dissociation half-lives (KD and t_{1/2}, respectively) of antigen binding to purified anti-PD-L1 monoclonal antibodies were determined using a real-time surface plasmon resonance biosensor assay on a Biacore 4000 instrument. The Biacore sensor surface was either derivatized with polyclonal rabbit anti-mouse antibody (GE, #BR-1008-38) or with monoclonal mouse anti-human Fc antibody (GE, #BR-1008-39) to capture approximately 200-300 RUs of anti-PD-L1 monoclonal antibodies, expressed with either a mouse Fc or with human Fc, respectively. […] Different concentrations of PD-L1 reagents were injected over the anti-PD-L1 monoclonal antibody captured surface at a flow rate of 30 μL/min. The binding of the PD-L1 reagents to the captured monoclonal antibodies was monitored for 3 to 4 minutes while the dissociation of antibody bound PD-L1 reagents was monitored for 10 minutes in HBST running buffer (0.01 M HEPES pH 7.4, 0.15 M NaCl, 3 mM EDTA, 0.05% v/v Surfactant tween-20). Experiments were performed at either 25° C. or 37° C. Kinetic association (kₐ) and dissociation (kd) rate constants were determined by processing and fitting the data to a 1:1 binding model using Scrubber 2.0c curve fitting software. Binding dissociation equilibrium constants (KD) and dissociative half-lives (t_{1/2}) were then calculated from the kinetic rate constants as: KD (M)=kd/kₐ and t_{1/2} (min)=[In2/(60*kd)].

Human PD-L1 Dimer [2] = biological target: T2, Human PD-L1 Dimer (human, UniProt Q9NZQ7 19-239); assay: SPR (Biacore), mAb captured, 37C
T2 construct: also called hPD-L1 dimer; hPD-L1-hFc
Method: as §1

[3] = biological target: T3, recombinant human PD-L1 (amino acids 19-239 of NP_054862.1) with a C-terminal myc-myc-hexahistidine tag (human); assay: SPR (Biacore), mAb captured, 37C
T3 construct: also called hPD-L1-MMH; hPD-L1-MMH Monomer
Method: as §1

[4] = biological target: T4, recombinant cynomolgus monkey PD-L1 with a C-terminal myc-myc-hexahistidine tag (cynomolgus monkey (Macaca fascicularis)); assay: SPR (Biacore), mAb captured, 37C
T4 construct: also called MfPD-L1-MMH; MfPD-L1-MMH Monomer
Method: as §1

Human PD-L1 Dimer [5] = biological target: T2, Human PD-L1 Dimer; assay: SPR (Biacore), mAb captured, 25C
Method: as §1

[6] = biological target: T4, recombinant cynomolgus monkey PD-L1 …; assay: SPR (Biacore), mAb captured, 25C
Method: as §1

T1 sequence (chain, as listed by the source limits assumed): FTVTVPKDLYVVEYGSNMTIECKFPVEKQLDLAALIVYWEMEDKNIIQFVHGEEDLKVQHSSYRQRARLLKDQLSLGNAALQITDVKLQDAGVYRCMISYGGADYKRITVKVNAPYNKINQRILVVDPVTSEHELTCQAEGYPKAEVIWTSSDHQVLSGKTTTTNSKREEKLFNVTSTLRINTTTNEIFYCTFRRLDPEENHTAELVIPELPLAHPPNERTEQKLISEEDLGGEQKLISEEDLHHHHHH
T2 sequence (Q9NZQ7 19-239): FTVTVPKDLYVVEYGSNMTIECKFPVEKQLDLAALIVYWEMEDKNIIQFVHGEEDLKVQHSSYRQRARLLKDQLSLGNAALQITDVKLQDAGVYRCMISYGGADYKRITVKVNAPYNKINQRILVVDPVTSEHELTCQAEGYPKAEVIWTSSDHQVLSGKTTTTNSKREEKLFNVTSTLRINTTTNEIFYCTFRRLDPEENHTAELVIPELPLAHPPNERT
T4 sequence (chain, as listed by the source limits assumed): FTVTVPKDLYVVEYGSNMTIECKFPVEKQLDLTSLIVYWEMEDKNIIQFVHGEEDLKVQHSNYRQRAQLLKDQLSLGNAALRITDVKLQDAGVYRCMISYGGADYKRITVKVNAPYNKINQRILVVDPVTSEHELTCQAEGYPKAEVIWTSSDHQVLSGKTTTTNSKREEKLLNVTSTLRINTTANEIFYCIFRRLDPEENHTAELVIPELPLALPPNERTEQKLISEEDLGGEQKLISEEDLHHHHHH

B2: H1H9382P2 (antibody, human IgG1, V domains shown)
VH: EVQLVESGGGLVQPGGSLRLSCAASGFTVGTNFMNWVRQAPGKGLEWVSAIYSGGTANYADSVKGRFTISRDTSRNTLYLQMNSLRTEDTAVYYCARGGGMDVWGQGTTVTVSS
VL: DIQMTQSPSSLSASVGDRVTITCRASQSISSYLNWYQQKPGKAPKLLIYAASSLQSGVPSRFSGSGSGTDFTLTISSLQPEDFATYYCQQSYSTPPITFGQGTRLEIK
Kd [1]: 60.6 nM
koff [1]: 0.00479 s⁻¹
kon [1]: 79000 M⁻¹ s⁻¹
t1/2 [1]: 2.4 min

B4: H1H9387P2 (antibody, human IgG1, V domains shown)
VH: QVQLVQSGAEVKKPGSSVKVSCKASGGTFNTYVLSWVRQAPGQGLEWMGEIIPILGAANYAQNFQGRVTFTTDESTNTAYMDLSSLRSEDTAVYYCARDRTSGGFDPWGQGTLVTVSS
VL: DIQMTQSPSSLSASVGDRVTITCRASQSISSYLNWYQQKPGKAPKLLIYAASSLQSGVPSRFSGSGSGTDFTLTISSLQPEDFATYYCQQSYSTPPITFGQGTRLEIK
Kd [1]: 22.1 nM
koff [1]: 0.0582 s⁻¹
kon [1]: 2.64e+06 M⁻¹ s⁻¹
t1/2 [1]: 0.2 min

B6: H2aM8321N (antibody, mouse IgG2, V domains shown)
VH: EERLVESGGDLVQPGGSLRLSCAASGITVGTNYMNWVRQAPGKGLEWVSVISSGGNTHYADSVKGRFIMSRQTSKNTLYLQMNSLETEDTAVYYCARGIRGLDVWGQGTMVTVSS
VL: DIQMTQSPSSLSASVGDRVTITCRASQSMSSYLNWYQQKPGRAPKLLIFAASSLQSGVPSRFSGSGSGTDFTLTISSLQPEDFATYYCQQSYSTPPITFGQGTRLEIK
notes: also called H2M8321N
Kd [1]: 34.9 nM
koff [1]: 0.00359 s⁻¹
kon [1]: 103000 M⁻¹ s⁻¹
t1/2 [1]: 3.2 min

B7: H2aM8317N (antibody, mouse IgG2, V domains shown)
VH: EVQLVESGGGLVQPGGSLRLSCAASGFTVGSNYMNWVRQAPGKGLEWVSVIYSGGSTYYADSVKGRFTISRLTSKNTLYLQMSSLRPEDTAVYYCARGIRGLDVWGQGTTVTVSS
VL: B6 VL with S28T, M29I, S30N, S31I, K45R, F49Y, Q89H
notes: also called H2M8317N
Kd [1]: 421 nM
koff [1]: 0.0395 s⁻¹
kon [1]: 94000 M⁻¹ s⁻¹
t1/2 [1]: 0.3 min

B11: H2aM8309N (antibody, mouse IgG2, V domains shown)
VH: not shown
VL: DIQMTQSPSSLSASVGDRVTITCRTSQGIRNDLGWYQQKPGKAPKRLIYAASSLQSGVPSRFSGSGSGTEFTLTISSLQPEDFATYYCLQHNNYPYTFGQGTKLEIK
notes: also called H2M8309N
Kd (Human PD-L1 Dimer [2]): 0.0376 nM
koff (Human PD-L1 Dimer [2]): 0.000166 s⁻¹
kon (Human PD-L1 Dimer [2]): 4.41e+06 M⁻¹ s⁻¹
t1/2 (Human PD-L1 Dimer [2]): 70 min
Kd [3]: 29.7 nM
koff [3]: 0.0314 s⁻¹
kon [3]: 1.06e+06 M⁻¹ s⁻¹
t1/2 [3]: 0.4 min
Kd [4]: 26.3 nM
koff [4]: 0.0281 s⁻¹
kon [4]: 1.07e+06 M⁻¹ s⁻¹
t1/2 [4]: 0.4 min
Kd (Human PD-L1 Dimer [5]): 0.0429 nM
koff (Human PD-L1 Dimer [5]): 0.000144 s⁻¹
kon (Human PD-L1 Dimer [5]): 3.36e+06 M⁻¹ s⁻¹
t1/2 (Human PD-L1 Dimer [5]): 80 min
Kd [6]: 14.9 nM
koff [6]: 0.013 s⁻¹
kon [6]: 870000 M⁻¹ s⁻¹
t1/2 [6]: 0.9 min

B12: H1H9329P (antibody, human IgG1, V domains shown)
VH: EVQLVESGGGLVQSGGSLRLSCAASGFTFSSYWMSWVRQAPGKGLEWVANIKQDGSEKYYVDSVKGRFTISRDNAKNSLYLQMNSLRADDTAVYYCARDDIVVVPAPMGYYYYYFGMDVWGQGTTVTVSS
VL: B11 VL with T25A, N93S
Kd [1]: 75.8 nM
koff [1]: 0.134 s⁻¹
kon [1]: 1.77e+06 M⁻¹ s⁻¹
t1/2 [1]: 0.1 min

B13: H1H9345P2 (antibody, human IgG1, V domains shown)
VH: EVQLVESGGGLVQPGGSLRLSCAASGFTISTNYMNWVRQAPGKGLEWVAVIYSSGSTYYIDSVKGRFTISRLTSKNTVYLQMSSLNSEDTAVYYCARGIRGFDIWGQGTMVTVSS
VL: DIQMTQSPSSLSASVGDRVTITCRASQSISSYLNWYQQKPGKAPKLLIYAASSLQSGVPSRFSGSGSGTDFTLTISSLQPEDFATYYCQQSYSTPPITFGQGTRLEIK
Kd [1]: 165 nM
koff [1]: 0.0149 s⁻¹
kon [1]: 90200 M⁻¹ s⁻¹
t1/2 [1]: 0.8 min

B17: H2aM8306N (antibody, mouse IgG2, V domains shown)
VH: EVQLVESGGGLVQPGGSLRLSCAASGFTFSRFWMSWVRQAPGKGLEWVANINQDGTEKYYVDSVKGRFTISRDNAKNSLYLQMNSLRAGDTAVYYCANTYYDFWSGHFDYWGQGTLVTVSS
VL: not shown
notes: also called H2M8306N
Kd [1]: 69.6 nM
koff [1]: 0.01 s⁻¹
kon [1]: 144000 M⁻¹ s⁻¹
t1/2 [1]: 1.2 min

B18: H2aM8306N (antibody, mouse IgG2, V domains shown)
VH: B17 VH
VL: not shown
notes: also called H2M8306N
Kd (Human PD-L1 Dimer [2]): 0.417 nM
koff (Human PD-L1 Dimer [2]): 0.000416 s⁻¹
kon (Human PD-L1 Dimer [2]): 997000 M⁻¹ s⁻¹
t1/2 (Human PD-L1 Dimer [2]): 28 min
Kd [3]: 172 nM
koff [3]: 0.031 s⁻¹
kon [3]: 180000 M⁻¹ s⁻¹
t1/2 [3]: 0.4 min
Kd [4]: 134 nM
koff [4]: 0.0368 s⁻¹
kon [4]: 274000 M⁻¹ s⁻¹
t1/2 [4]: 0.3 min
Kd (Human PD-L1 Dimer [5]): 0.418 nM
koff (Human PD-L1 Dimer [5]): 0.000309 s⁻¹
kon (Human PD-L1 Dimer [5]): 739000 M⁻¹ s⁻¹
t1/2 (Human PD-L1 Dimer [5]): 37 min
Kd [6]: 47.7 nM
koff [6]: 0.00788 s⁻¹
kon [6]: 165000 M⁻¹ s⁻¹
t1/2 [6]: 1.5 min

Second part, the binder after the results:

Kd [1]: 3.5 nM
koff [1]: 0.00031 s⁻¹
kon [1]: 88600 M⁻¹ s⁻¹
t1/2 [1]: 37 min
B1: H2aM8310N (antibody, mouse IgG2, V domains shown)
VH: QVQLVQSGAEVKKPGASVQVSCKASGYSFTGYYIHWVRQAPGQGLEWMGWINPNSGTKKYAHKFQGRVTMTRDTSIDTAYMILSSLISDDTAVYYCARDEDWNFGSWFDSWGQGTLVTVSS
VL: DIVMTQTPLSSPVTLGQPASISCRSSQTLVHGDGNTYLSWIQQRPGQPPRLLIYKVSNQFSGVPDRFSGSGAGTDFTLKISRVEAEDVGLYFCMQATHFPITFGQGTRLEIK
notes: also called H2M8310N

Kd [1]: 12.7 nM
koff [1]: 0.00218 s⁻¹
kon [1]: 172000 M⁻¹ s⁻¹
t1/2 [1]: 5.3 min
B3: H1H9396P2 (antibody, human IgG1, V domains shown)
VH: QVQLVQSGAEVEKPGASVKVSCKASGYIFTHYGISWVRQAPGQGLEWVGWISPYNGYTDYAQKLQGRVTLTTDTSTTTAYMELRNLRSDDTAMYYCSRGRGPYWSFDLWGRGTLVTVSS
VL: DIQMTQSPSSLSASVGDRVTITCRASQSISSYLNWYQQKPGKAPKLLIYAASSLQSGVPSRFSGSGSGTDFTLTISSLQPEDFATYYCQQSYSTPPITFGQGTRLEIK

Kd [1]: 0.0558 nM
koff [1]: 5.17e-05 s⁻¹
kon [1]: 925000 M⁻¹ s⁻¹
t1/2 [1]: 224 min
B5: H2aM8314N (antibody, mouse IgG2, V domains shown)
VH: EVQLVESGGGVVRPGGSLRLSCAASGFTFDDYGMTWVRQAPGRGLEWVSGIHWHGKRTGYADSVKGRFTISRDNAKKSLYLQMNSLKGEDTALYHCVRGGMSTGDWFDPWGQGTLVIVSS
VL: B6 VL with V15L, M29I, S30N, R42K, F49Y, A50V, D70E, S77N
notes: also called H2M8314N

Kd [1]: 0.238 nM
koff [1]: 0.000223 s⁻¹
kon [1]: 937000 M⁻¹ s⁻¹
t1/2 [1]: 52 min
B8: H2aM8323N (antibody, mouse IgG2, V domains shown)
VH: QVQLVQSGAEVKMPGSSVRVSCKASGGIFSSSTISWVRQAPGQGLEWMGEIIPVFGTVNYAQKFQDRVIFTADESTTTAYMELSSLKSGDTAVYFCARNWGLGSFYIWGQGTMVTVSS
VL: EIVLTQSPGTLSLSPGERATLSCRASQSFNFNYLAWYQQKPGQAPRLLIYGASSRATGIPDRFSGSGSGTDFTLTINRLEPEDFGVFYCQQYESAPWTFGQGTKVEIK
notes: also called H2M8323N

Kd [1]: 9.51 nM
koff [1]: 0.000722 s⁻¹
kon [1]: 75900 M⁻¹ s⁻¹
t1/2 [1]: 16 min
B9: H2aM8312N (antibody, mouse IgG2, V domains shown)
VH: QVHLVQSGAEVKKPGASVKVSCKASGYTFTGYYIHWVRQAPGHGLEWMGWLNPNTGTTKYIQNFQGRVTMTRDTSSSTAYMELTRLRSDDTAVYYCARDEDWNYGSWFDTWGQGTLVTVSS
VL: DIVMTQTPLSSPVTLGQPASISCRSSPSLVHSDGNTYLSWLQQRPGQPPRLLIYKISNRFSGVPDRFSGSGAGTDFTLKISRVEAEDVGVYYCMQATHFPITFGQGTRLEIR
notes: also called H2M8312N

Kd [1]: 16.3 nM
koff [1]: 0.0104 s⁻¹
kon [1]: 642000 M⁻¹ s⁻¹
t1/2 [1]: 1.1 min
B10: H2aM8309N (antibody, mouse IgG2, V domains shown)
VH: not shown
VL: B11 VL
notes: also called H2M8309N

Kd [1]: 0.321 nM
koff [1]: 0.000299 s⁻¹
kon [1]: 932000 M⁻¹ s⁻¹
t1/2 [1]: 39 min
B14: H1H9364P2 (antibody, human IgG1, V domains shown)
VH: EVQLVESGGGLVQPGRSLRLSCAASGFTFDDYALHWVRQAPGKGLEWVSGISWTGGTIDYADSVKGRFTISRDNAKNSLYLQMSSLRTEDTAIYYCTRDIRGNWKYGGWFDPWGQGTLVTVSS
VL: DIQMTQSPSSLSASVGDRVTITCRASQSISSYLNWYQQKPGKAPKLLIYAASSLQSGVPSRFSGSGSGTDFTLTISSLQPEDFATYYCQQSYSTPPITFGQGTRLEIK

Kd [1]: 0.492 nM
koff [1]: 0.00039 s⁻¹
kon [1]: 792000 M⁻¹ s⁻¹
t1/2 [1]: 30 min
B15: H1H9336P (antibody, human IgG1, V domains shown)
VH: EVQLVESGGGLVQPGRSLRLSCAASGFTFDDFAMHWVRQAPGKGLEWVSGISWTGGNMDYANSVKGRFTISREDAKNSLYLQMNSLRAADTALYYCVKDIRGIVATGGAFDIWGRGTMVTVSS
VL: DIQMTQSPSSLSASVGDRVTISCRASQTISTYLNWFQQKPGKAPKLLIYVVSSLQSGVPSRFSGSGSGTDFTLTISSLQPEDFATYYCQQSYSTPFTFGPGTKVDIK

Kd [1]: 8.04 nM
koff [1]: 0.000383 s⁻¹
kon [1]: 47600 M⁻¹ s⁻¹
t1/2 [1]: 30 min
B16: H1H9354P2 (antibody, human IgG1, V domains shown)
VH: EVQLVESGGGLVQPGGSLRLSCEASGFTVGVNHMNWVRQAPGKGLEWVSVIFSSGRTFYGDYVKGRLTIFRQTSQNTVYLQMNSLRSEDTAIYYCARGIGGLDIWGRGTMVTVSS
VL: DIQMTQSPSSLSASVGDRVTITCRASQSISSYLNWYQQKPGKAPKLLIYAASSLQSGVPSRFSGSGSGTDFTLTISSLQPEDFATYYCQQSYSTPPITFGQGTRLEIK
